Data set [1] concerns the target DENV2 sE HCat3, displayed on EXPI293F cells (Dengue virus 2 strain 16681). Briefly: flow cytometry, displayed sE, 40 C. In general terms: A flow cytometer gives signals particle by particle.
The target in data set [2] is DENV2 sE IntFc2, displayed on EXPI293F cells (Dengue virus 2 strain 16681). Kind of data set: flow cytometry, displayed sE, 40 C.
The target in data set [3] is DENV2 sE IntFc8, displayed on EXPI293F cells (Dengue virus 2 strain 16681). Briefly: flow cytometry, displayed sE, 40 C.
In data set [4] the target is DENV2 sE PM2, displayed on EXPI293F cells (Dengue virus 2 strain 16681). Kind of data set: flow cytometry, displayed sE, 40 C.
Data set [5] has as its target DENV2 sE PM4, displayed on EXPI293F cells (Dengue virus 2 strain 16681). Briefly: flow cytometry, displayed sE, 40 C.
The target of data set [6] is DENV2 sE SHP1, displayed on EXPI293F cells (Dengue virus 2 strain 16681). Kind of data set: flow cytometry, displayed sE, 40 C.
The target in data set [7] is DENV2 sE SHP2, displayed on EXPI293F cells (Dengue virus 2 strain 16681). Kind of data set: flow cytometry, displayed sE, 40 C.
In data set [8] the target is DENV2 sE UndPk6, displayed on EXPI293F cells (Dengue virus 2 strain 16681). Briefly: flow cytometry, displayed sE, 40 C.
The target in data set [9] is DENV2 sE Cm1, displayed on EXPI293F cells (Dengue virus 2 strain 16681). Kind of data set: flow cytometry, EXPI293F surface display, 40 C.
Data set [10] concerns the target DENV2 sE Cm2, displayed on EXPI293F cells (Dengue virus 2 strain 16681). Kind of data set: flow cytometry, EXPI293F surface display, 40 C.
Data set [11] has as its target DENV2 sE HCat3, displayed on EXPI293F cells (Dengue virus 2 strain 16681). Briefly: flow cytometry, EXPI293F surface display, 40 C.
In data set [12] the target is DENV2 sE IntFc2, displayed on EXPI293F cells (Dengue virus 2 strain 16681). Kind of data set: flow cytometry, EXPI293F surface display, 40 C.
Data set [13] has as its target DENV2 sE IntFc6, displayed on EXPI293F cells (Dengue virus 2 strain 16681). Kind of data set: flow cytometry, EXPI293F surface display, 40 C.
For data set [14], the target named is DENV2 sE IntFc8, displayed on EXPI293F cells (Dengue virus 2 strain 16681). Briefly: flow cytometry, EXPI293F surface display, 40 C.
The target of data set [15] is DENV2 sE Mnmer1, displayed on EXPI293F cells (Dengue virus 2 strain 16681). Kind of data set: flow cytometry, EXPI293F surface display, 40 C.
The target in data set [16] is DENV2 sE Mnmer2, displayed on EXPI293F cells (Dengue virus 2 strain 16681). Kind of data set: flow cytometry, EXPI293F surface display, 40 C.
Data set [17] concerns the target DENV2 sE PM2, displayed on EXPI293F cells (Dengue virus 2 strain 16681). Briefly: flow cytometry, EXPI293F surface display, 40 C.
The target of data set [18] is DENV2 sE SHP1, displayed on EXPI293F cells (Dengue virus 2 strain 16681). Kind of data set: flow cytometry, EXPI293F surface display, 40 C.
Data set [19] addresses DENV2 sE SHP2, displayed on EXPI293F cells (Dengue virus 2 strain 16681). Briefly: flow cytometry, EXPI293F surface display, 40 C.
The target in data set [20] is DENV2 sE UndPk6, displayed on EXPI293F cells (Dengue virus 2 strain 16681). Briefly: flow cytometry, EXPI293F surface display, 40 C.
Data set [21] concerns the target DENV2 sE WT, displayed on EXPI293F cells (Dengue virus 2 strain 16681). Kind of data set: flow cytometry, EXPI293F surface display, 40 C.
The target in data set [22] is DENV2 sE Cm1, displayed on EXPI293F cells (Dengue virus 2 strain 16681). Briefly: flow cytometry, EXPI293F surface display, RT (~23 C).
Data set [23] has as its target DENV2 sE Cm2, displayed on EXPI293F cells (Dengue virus 2 strain 16681). Described as above.
Data set [24] concerns the target DENV2 sE HCat3, displayed on EXPI293F cells (Dengue virus 2 strain 16681). The description is as above.
Data set [25] has as its target DENV2 sE IntFc2, displayed on EXPI293F cells (Dengue virus 2 strain 16681). The description is as above.
The target of data set [26] is DENV2 sE IntFc6, displayed on EXPI293F cells (Dengue virus 2 strain 16681). The data set is described as above.
Data set [27] has as its target DENV2 sE IntFc8, displayed on EXPI293F cells (Dengue virus 2 strain 16681). Described as above.
In data set [28] the target is DENV2 sE Mnmer1, displayed on EXPI293F cells (Dengue virus 2 strain 16681). The description is as above.
Data set [29] concerns the target DENV2 sE Mnmer2, displayed on EXPI293F cells (Dengue virus 2 strain 16681). The description is as above.
In data set [30] the target is DENV2 sE PM2, displayed on EXPI293F cells (Dengue virus 2 strain 16681). The data set is described as above.
Data set [31] deals with DENV2 sE PM4, displayed on EXPI293F cells (Dengue virus 2 strain 16681). Described as above.
Data set [32] addresses DENV2 sE SHP1, displayed on EXPI293F cells (Dengue virus 2 strain 16681). The data set is described as above.
Data set [33] deals with DENV2 sE SHP2, displayed on EXPI293F cells (Dengue virus 2 strain 16681). The data set is described as above.
Data set [34] deals with DENV2 sE UndPk6, displayed on EXPI293F cells (Dengue virus 2 strain 16681). The data set is described as above.
Data set [35] deals with DENV2 sE WT, displayed on EXPI293F cells (Dengue virus 2 strain 16681). The data set is described as above.
A short description of data set [36]: nanoDSF melting, homodimer dissociation, 4.0 µM. (Differential scanning fluorimetry follows unfolding on heating by fluorescence.)

“And” between values parts separate entries of the source, which are not always exact repeats. Identical values can stand only once. Like-named read-outs stand apart in the source and are kept apart here. Some results are limits rather than exact numbers.

Turning to 2D22 (antibody), the Fr (geometric mean fluorescence intensity ratio, variant/WT) in data set [1], in [2], in [3], in [4], in data set [5] and in data set [6] was above 2 fold each time. The Fr (geometric mean fluorescence intensity ratio, variant/WT) in [7] and in data set [8] was above 2 fold throughout. The Fluorescence Ratio (Fr, Var/WT) in data set [9] was found to be 1.6; in data set [10], 4.4; in data set [11], 2.8; in [12] it was 2.5; in data set [13], 0; in [14], 4.4. Moreover, the Fluorescence Ratio (Fr, Var/WT) turned out to be 0 in [15]; 0.8 in data set [16]; 2.8 in data set [17]; 4.4 in data set [18]; 3.1 in data set [19]; 4.9 in data set [20]. Further, the Fluorescence Ratio (Fr, Var/WT) stood at 1 in [21]; 0.8 in [22]; 1.9 in data set [23]; 1.6 in data set [24]; 1.3 in data set [25]; 1 in data set [26]. Besides, the Fluorescence Ratio (Fr, Var/WT) is 2.5 in data set [27]; 0.5 in data set [28]; 2.8 in [29]; 2.5 in [30]; 3 in [31]; 3 in data set [32]. Also, the Fluorescence Ratio (Fr, Var/WT) amounted to 2.4 in [33], 2.7 in data set [34] and 1 in data set [35].
In the case of DENV2 sE WT, the Tm^1 (Dimer Dissociation) is 35.9 ° C. and 34.2 ° C. and 32.1 ° C.
DENV3 sE WT: in [36], the Tm^1 (Dimer Dissociation) is below 15 ° C and the ΔTm^1 (Var-WT) was found to be 0 ° C.
